Measured values as given in patent US20190038704A1.

How the values were obtained:
[1] = target: EphA4 on neurons of embryonic day 6 chicken nasal retinal explants (chicken) (UniProt Q07496); assay: cell-based or functional assay
[2] = target: mouse EphA4 ectodomain fused to Fc (mouse) (UniProt Q03137); assay: competition ELISA: ephrin-A5 AP binding to immobilized EphA4 Fc
Sequence of mouse EphA4 ectodomain fused to Fc (mouse) (Q03137 20-547): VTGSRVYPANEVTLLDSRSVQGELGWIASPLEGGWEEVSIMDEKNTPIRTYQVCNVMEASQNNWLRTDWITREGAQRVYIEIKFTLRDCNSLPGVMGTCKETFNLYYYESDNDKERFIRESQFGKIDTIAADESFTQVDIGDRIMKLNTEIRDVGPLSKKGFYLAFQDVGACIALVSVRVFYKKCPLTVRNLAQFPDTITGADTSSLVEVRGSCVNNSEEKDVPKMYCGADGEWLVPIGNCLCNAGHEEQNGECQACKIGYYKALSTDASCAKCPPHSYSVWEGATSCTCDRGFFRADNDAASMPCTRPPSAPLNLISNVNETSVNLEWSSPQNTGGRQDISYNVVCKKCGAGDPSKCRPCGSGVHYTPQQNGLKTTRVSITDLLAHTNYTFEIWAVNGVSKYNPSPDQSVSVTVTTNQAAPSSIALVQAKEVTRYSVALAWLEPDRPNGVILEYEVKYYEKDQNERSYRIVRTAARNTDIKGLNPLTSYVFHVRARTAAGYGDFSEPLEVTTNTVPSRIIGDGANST

Sequence of ephrin-A5 Fc (Fc fusion) (P52803 21-203): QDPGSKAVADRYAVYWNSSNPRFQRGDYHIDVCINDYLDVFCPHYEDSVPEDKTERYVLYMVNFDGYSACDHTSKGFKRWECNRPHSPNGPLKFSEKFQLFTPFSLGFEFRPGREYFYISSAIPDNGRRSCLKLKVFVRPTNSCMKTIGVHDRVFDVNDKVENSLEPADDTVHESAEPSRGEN
Sequence of EphA4 on neurons of embryonic day 6 chicken nasal retinal explants (chicken) (Q07496 20-986): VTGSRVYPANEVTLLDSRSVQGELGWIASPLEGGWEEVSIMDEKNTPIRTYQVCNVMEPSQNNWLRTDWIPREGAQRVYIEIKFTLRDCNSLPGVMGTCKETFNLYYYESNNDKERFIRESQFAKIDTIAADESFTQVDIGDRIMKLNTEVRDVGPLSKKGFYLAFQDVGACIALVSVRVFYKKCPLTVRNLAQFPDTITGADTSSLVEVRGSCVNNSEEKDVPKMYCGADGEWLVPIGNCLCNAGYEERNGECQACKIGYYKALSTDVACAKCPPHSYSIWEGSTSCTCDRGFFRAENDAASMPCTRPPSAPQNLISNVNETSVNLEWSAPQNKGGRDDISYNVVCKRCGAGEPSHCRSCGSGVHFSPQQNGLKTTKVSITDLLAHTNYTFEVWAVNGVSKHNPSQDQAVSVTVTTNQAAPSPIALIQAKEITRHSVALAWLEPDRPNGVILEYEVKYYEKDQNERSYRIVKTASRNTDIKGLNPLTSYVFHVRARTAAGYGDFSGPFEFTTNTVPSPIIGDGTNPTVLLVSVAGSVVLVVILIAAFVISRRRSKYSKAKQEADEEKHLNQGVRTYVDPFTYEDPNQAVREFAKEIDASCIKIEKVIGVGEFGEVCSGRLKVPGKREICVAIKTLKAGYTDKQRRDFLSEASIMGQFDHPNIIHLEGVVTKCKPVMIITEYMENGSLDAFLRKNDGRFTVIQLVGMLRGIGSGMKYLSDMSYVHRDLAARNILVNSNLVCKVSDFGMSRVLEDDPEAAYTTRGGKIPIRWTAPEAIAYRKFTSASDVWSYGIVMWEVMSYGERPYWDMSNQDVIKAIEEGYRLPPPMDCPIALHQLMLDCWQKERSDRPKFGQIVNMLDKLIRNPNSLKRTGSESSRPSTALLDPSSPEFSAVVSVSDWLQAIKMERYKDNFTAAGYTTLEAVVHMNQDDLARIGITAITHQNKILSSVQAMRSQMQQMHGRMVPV

Row | Substance | percent collapsed growth cones, chicken nasal retinal explants (experiment with APY-d3.am) [1] | percent collapsed growth cones, chicken nasal retinal explants (experiment with APY-βAla8.am) [1] | IC50 [2]
1 | ephrin-A5 Fc (Fc fusion) | 70% | 65% | –
2 | βAla1-PY-Lys7-βAla8.am (peptide) | – | – | 70 nM
